Among the targets are MBP-3 S287A; MBP-3 S246D; MBP-3 D260A; MBP-3 S287D; MBP-3 S279A.
Assay in all cases: pull-down
For another experiment, the target named is T1, MBP-3 D262A.
T1 chain: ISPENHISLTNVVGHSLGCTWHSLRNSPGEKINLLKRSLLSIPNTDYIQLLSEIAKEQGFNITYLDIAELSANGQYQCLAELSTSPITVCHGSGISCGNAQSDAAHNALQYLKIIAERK

The target in another experiment is T2, MBP-3 Q243A.
T2 chain: T1 chain with Q49A, A68D

Changes are numbered by the printed parent chain. Names may count otherwise.

For “PKR (K296R)-FLAG (from UniProt P19525 1-551) (enzyme)”, the PKR bound, percent of wt MBP-3 with MBP-3 S287A came to 59%; with MBP-3 S246D, 100%; with MBP-3 D260A, 63%; with MBP-3 S287D, 95%; in the experiment with MBP-3 S279A, 23%.

B1: PKR (K296R)-FLAG (enzyme, UniProt P19525 1-551, looked up)
chain: MAGDLSAGFFMEELNTYRQKQGVVLKYQELPNSGPPHDRRFTFQVIIDGREFPEGEGRSKKEAKNAAAKLAVEILNKEKKAVSPLLLTTTNSSEGLSMGNYIGLINRIAQKKRLTVNYEQCASGVHGPEGFHYKCKMGQKEYSIGTGSTKQEAKQLAAKLAYLQILSEETSVKSDYLSSGSFATTCESQSNSLVTSTLASESSSEGDFSADTSEINSNSDSLNSSSLLMNGLRNNQRKAKRSLAPRFDLPDMKETKYTVDKRFGMDFKEIELIGSGGFGQVFKAKHRIDGKTYVIRRVKYNNEKAEREVKALAKLDHVNIVHYNGCWDGFDYDPETSDDSLESSDYDPENSKNSSRSKTKCLFIQMEFCDKGTLEQWIEKRRGEKLDKVLALELFEQITKGVDYIHSKKLIHRDLKPSNIFLVDTKQVKIGDFGLVTSLKNDGKRTRSKGTLRYMSPEQISSQDYGKEVDLYALGLILAELLHVCDTAFETSKFFTDLRDGIISDIFDKKEKTLLQKLLSKKPEDRPNTSEILRTLTVWKKSPEKNERHTC
Turning to B1, the figures for the “PKR bound, percent of wt MBP-3” value with MBP-3 D262A and with MBP-3 Q243A were 2% and 9%, respectively.

Values taken from article PMC2766932 (Biochemistry, 2009).
